Drawing on paper PMC8430995, this text covers ratio to parent for seven substances.

Sequence of K8 WT/K18 WT (transfected) (from UniProt P05787;P05783) K18:I149V (P05787 whole entry, stated change not applied): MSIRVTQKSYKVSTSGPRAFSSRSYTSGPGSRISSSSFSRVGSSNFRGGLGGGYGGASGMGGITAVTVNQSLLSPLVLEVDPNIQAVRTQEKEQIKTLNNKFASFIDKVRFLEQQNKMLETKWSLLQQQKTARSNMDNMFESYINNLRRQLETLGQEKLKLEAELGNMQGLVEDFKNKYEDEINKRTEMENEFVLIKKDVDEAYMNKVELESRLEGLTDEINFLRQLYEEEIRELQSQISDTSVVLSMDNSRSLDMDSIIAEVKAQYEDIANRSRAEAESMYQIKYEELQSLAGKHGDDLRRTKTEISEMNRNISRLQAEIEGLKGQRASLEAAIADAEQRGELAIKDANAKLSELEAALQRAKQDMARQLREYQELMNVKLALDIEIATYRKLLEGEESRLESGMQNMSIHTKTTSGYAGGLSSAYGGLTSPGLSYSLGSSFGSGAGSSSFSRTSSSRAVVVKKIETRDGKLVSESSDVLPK
Sequence of K8 WT/K18 WT (transfected) (from UniProt P05787;P05783) K18:I149V (P05783 whole entry, stated change not applied): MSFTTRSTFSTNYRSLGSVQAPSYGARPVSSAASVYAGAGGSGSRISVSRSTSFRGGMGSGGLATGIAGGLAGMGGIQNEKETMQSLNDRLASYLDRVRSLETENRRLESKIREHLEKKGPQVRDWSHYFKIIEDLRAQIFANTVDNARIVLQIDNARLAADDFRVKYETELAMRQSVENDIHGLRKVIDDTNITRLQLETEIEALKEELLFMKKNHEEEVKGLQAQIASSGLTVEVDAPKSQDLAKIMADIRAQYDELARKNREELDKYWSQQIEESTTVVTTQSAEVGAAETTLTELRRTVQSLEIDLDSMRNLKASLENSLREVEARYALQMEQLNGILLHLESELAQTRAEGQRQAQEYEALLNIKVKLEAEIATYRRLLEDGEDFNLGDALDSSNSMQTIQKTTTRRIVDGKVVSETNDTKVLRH
Sequence of K8 WT/K18 WT (transfected) (from UniProt P05787;P05783) K8:R341H (P05787 whole entry, stated change not applied): as the sequence (P05787 whole entry, stated change not applied) above
Sequence of K8 WT/K18 WT (transfected) (from UniProt P05787;P05783) K8:R341H (P05783 whole entry, stated change not applied): as the sequence (P05783 whole entry, stated change not applied) above
Sequence of K8 WT/K18 WT (transfected) (from UniProt P05787;P05783) K8:R454C (P05787 whole entry, stated change not applied): as the sequence (P05787 whole entry, stated change not applied) above
Sequence of K8 WT/K18 WT (transfected) (from UniProt P05787;P05783) K8:R454C (P05783 whole entry, stated change not applied): as the sequence (P05783 whole entry, stated change not applied) above
Sequence of K8 WT/K18 WT (transfected) (from UniProt P05787;P05783) K8:A319S (P05787 whole entry, stated change not applied): as the sequence (P05787 whole entry, stated change not applied) above
Sequence of K8 WT/K18 WT (transfected) (from UniProt P05787;P05783) K8:A319S (P05783 whole entry, stated change not applied): as the sequence (P05783 whole entry, stated change not applied) above
Sequence of K8 WT/K18 WT (transfected) (from UniProt P05787;P05783) K8:Y54H (P05787 whole entry, stated change not applied): as the sequence (P05787 whole entry, stated change not applied) above
Sequence of K8 WT/K18 WT (transfected) (from UniProt P05787;P05783) K8:Y54H (P05783 whole entry, stated change not applied): as the sequence (P05783 whole entry, stated change not applied) above
Sequence of K8 WT/K18 WT (transfected) (from UniProt P05787;P05783) K18:T294M (P05787 whole entry, stated change not applied): as the sequence (P05787 whole entry, stated change not applied) above
Sequence of K8 WT/K18 WT (transfected) (from UniProt P05787;P05783) K18:T294M (P05783 whole entry, stated change not applied): as the sequence (P05783 whole entry, stated change not applied) above
Sequence of K8 WT/K18 WT (transfected) (from UniProt P05787;P05783) K18:Q284R (P05787 whole entry, stated change not applied): as the sequence (P05787 whole entry, stated change not applied) above
Sequence of K8 WT/K18 WT (transfected) (from UniProt P05787;P05783) K18:Q284R (P05783 whole entry, stated change not applied): as the sequence (P05783 whole entry, stated change not applied) above

In the first experiment the target is Akt WT (transfected) (UniProt P31749). Kind of experiment: co-immunoprecipitation (K8/K18 IP, Akt immunoblot, quantified). The conditions noted are these: BHK-21 cells transfected with Akt WT, K8 WT and the K18 mutant; parent: est. 1.0; read off a plot.
Sequence of Akt WT (transfected) (P31749 whole entry): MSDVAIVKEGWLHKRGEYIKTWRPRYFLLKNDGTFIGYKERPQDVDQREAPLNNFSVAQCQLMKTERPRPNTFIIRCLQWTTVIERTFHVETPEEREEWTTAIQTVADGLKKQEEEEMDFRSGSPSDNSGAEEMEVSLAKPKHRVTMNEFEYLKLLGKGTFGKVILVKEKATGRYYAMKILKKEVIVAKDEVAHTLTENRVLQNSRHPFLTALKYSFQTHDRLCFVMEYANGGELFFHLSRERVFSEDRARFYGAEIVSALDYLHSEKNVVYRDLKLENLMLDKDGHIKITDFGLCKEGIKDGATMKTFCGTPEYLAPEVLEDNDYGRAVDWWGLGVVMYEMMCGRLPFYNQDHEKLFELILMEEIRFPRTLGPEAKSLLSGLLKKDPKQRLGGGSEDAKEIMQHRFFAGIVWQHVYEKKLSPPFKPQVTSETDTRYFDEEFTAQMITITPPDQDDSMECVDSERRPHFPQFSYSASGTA
“K8 WT/K18 WT (transfected) (from UniProt P05787;P05783) K18:I149V”: the ratio to parent was determined as 1.1.

In the case of “K8 WT/K18 WT (transfected) (from UniProt P05787;P05783) K18:Q284R”, the ratio to parent worked out at 1.3.

“K8 WT/K18 WT (transfected) (from UniProt P05787;P05783) K18:T294M”: the ratio to parent is 1.6.

The experiment is the same for the next values; noted with them: BHK-21 cells transfected with Akt WT, K18 WT and the K8 mutant; parent: est. 1.0; read off a plot.
As for “K8 WT/K18 WT (transfected) (from UniProt P05787;P05783) K8:A319S”, the ratio to parent was 0.93.

Take “K8 WT/K18 WT (transfected) (from UniProt P05787;P05783) K8:R341H”: the ratio to parent was found to be 0.92.

On to “K8 WT/K18 WT (transfected) (from UniProt P05787;P05783) K8:R454C”, for which the ratio to parent stood at 1.1.

With “K8 WT/K18 WT (transfected) (from UniProt P05787;P05783) K8:Y54H”, the ratio to parent amounted to 1.1.
